According to the supplement of paper PMC10567573:

B1: SOAT1 (parent)
chain: VYYIFERLCAPLFRNIKQEPFSAR

Variants of: B1
Experiment: protein stability index of a GFP-peptide fusion (GPS, HEK-293T) (PSI 1-6); higher = more stable
Conditions: c terminus: a fixed tail appended
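Further: lentivirally expressed fusions sorted by FACS into six bins by GFP to DsRed ratio, PSI derived from sequencing read proportions per bin multiplied by bin number.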

First: VMYIFERLCAPLFRNIKQEPFSAR [Y2M]
Second: VGYIFERLCAPLFRNIKQEPFSAR [Y2G]
The protein stability index of the first is higher: 2.83 for the first, 1.89 for the second.

Going from VWYIFERLCAPLFRNIKQEPFSAR [Y2W] to VKYIFERLCAPLFRNIKQEPFSAR [Y2K], the protein stability index falls from 2.26 to 1.5.

Going from VHYIFERLCAPLFRNIKQEPFSAR [Y2H] to VCYIFERLCAPLFRNIKQEPFSAR [Y2C], the protein stability index falls from 2.26 to 1.3.

Compared with VRYIFERLCAPLFRNIKQEPFSAR [Y2R], VPYIFERLCAPLFRNIKQEPFSAR [Y2P] is lower in protein stability index: 1.59 for the first, 1.44 for the second.

First: VNYIFERLCAPLFRNIKQEPFSAR [Y2N]
Second: VAYIFERLCAPLFRNIKQEPFSAR [Y2A]
The protein stability index of the first is lower: 1.76 for the first, 2.52 for the second.

Going from VQYIFERLCAPLFRNIKQEPFSAR [Y2Q] to VYYIFERLCAPLFRNIKQEPFQAR [S22Q], the protein stability index falls from 2.42 to 1.46.

Going from VYYIFERLCAPLFRNIKQEPFFAR [S22F] to VYYIFERLCAPLFRNIKQEPFNAR [S22N], the protein stability index falls from 2.66 to 2.3.

Going from VYYIFERLCAPLFRNIKQEPFGAR [S22G] to VYYIFERLCAPLFRNIKQEPFIAR [S22I], the protein stability index rises from 2.8 to 3.73.

Going from VYYIFERLCAPLFRNIKQEPFAAR [S22A] to VYYIFERLCAPLFRNIKQEPFWAR [S22W], the protein stability index rises from 2.65 to 2.91.

First: VYYIFERLCAPLFRNIKQEPFKAR [S22K]
Second: VYYIFERLCAPLFRNIKQEPFMAR [S22M]
The protein stability index of the first is lower: 1.96 for the first, 3.1 for the second.

Compared with VYYIFERLCAPLFRNIKQEPFEAR [S22E], VYYIFERLCAPNFRNIKQEPFSAR [L12N] is lower in protein stability index: 2.61 for the first, 1.98 for the second.

Going from VYYIFERLCAPCFRNIKQEPFSAR [L12C] to VYYIFERLCAPMFRNIKQEPFSAR [L12M], the protein stability index rises from 2.21 to 2.71.

First: VYYIFERLCAPHFRNIKQEPFSAR [L12H]
Second: VYYIFERLCAPKFRNIKQEPFSAR [L12K]
The protein stability index of the first is higher: 3.56 for the first, 2.57 for the second.

Going from VYYIFERLCAPPFRNIKQEPFSAR [L12P] to VYYIFERLCAPEFRNIKQEPFSAR [L12E], the protein stability index falls from 5.2 to 2.07.

First: VYYIFERLCAPTFRNIKQEPFSAR [L12T]
Second: VYYIFERLCAPGFRNIKQEPFSAR [L12G]
The protein stability index of the first is lower: 1.97 for the first, 2.59 for the second.

First: VYYIFERLCAPIFRNIKQEPFSAR [L12I]
Second: VYYIFERLCAPLFRNIKQEPFSIR [A23I]
The protein stability index of the first is higher: 3.19 for the first, 2.1 for the second.

First: VYYIFERLCAPLFRNIKQEPFSTR [A23T]
Second: VYYIFERLCAPLFRNIKQEPFSSR [A23S]
The protein stability index of the first is lower: 1.42 for the first, 2.8 for the second.

Compared with VYYIFERLCAPLFRNIKQEPFSCR [A23C], VYYIFERLCAPLFRNIKQEPFSPR [A23P] is higher in protein stability index: 1.65 for the first, 2.21 for the second.

Compared with VYYIFERLCAPLFRNIKQEPFSQR [A23Q], VYYIFERLCAPLFRNIKQEPFSWR [A23W] is higher in protein stability index: 2.02 for the first, 3.89 for the second.

Compared with VYYGFERLCAPLFRNIKQEPFSAR [I4G], VYYQFERLCAPLFRNIKQEPFSAR [I4Q] is higher in protein stability index: 1.71 for the first, 2.65 for the second.

Compared with VYYEFERLCAPLFRNIKQEPFSAR [I4E], VYYKFERLCAPLFRNIKQEPFSAR [I4K] is higher in protein stability index: 1.82 for the first, 2.81 for the second.

Going from VYYDFERLCAPLFRNIKQEPFSAR [I4D] to VYYIFERLCAPLFRNIKQEPESAR [F21E], the protein stability index rises from 1.55 to 2.39.

Going from VYYIFERLCAPLFRNIKQEPMSAR [F21M] to VYYIFERLCAPLFRNIKQEPQSAR [F21Q], the protein stability index falls from 2.64 to 1.77.

Going from VYYIFERLCAPLFRNIKQEPNSAR [F21N] to VYYIFERLCAPLFRNIKQEPSSAR [F21S], the protein stability index rises from 1.36 to 2.13.

Going from VYYIFERLCAPLFRNIKQEPHSAR [F21H] to VYYIFERLCAPLFRNIKQEPDSAR [F21D], the protein stability index rises from 1.59 to 2.17.

Going from VYYIFERLCAPLFRNIKQEPVSAR [F21V] to VYYIFERLCAPLFRNIKQEPASAR [F21A], the protein stability index falls from 2.97 to 2.07.

Compared with VYYIFERLCAPLFRNIKQEPLSAR [F21L], VYYIFERLCAPLFRNIKQEPTSAR [F21T] is higher in protein stability index: 1.7 for the first, 2.7 for the second.

First: VYYIFERLCAPLFRNIKVEPFSAR [Q18V]
Second: VYYIFERLCAPLFRNIKGEPFSAR [Q18G]
The protein stability index of the first is lower: 1.88 for the first, 2.28 for the second.

Compared with VYYIFERLCAPLFRNIKTEPFSAR [Q18T], VYYIFERLCAPLFRNIKMEPFSAR [Q18M] is higher in protein stability index: 1.91 for the first, 2.92 for the second.

Going from VYYIFERLCAPLFRNIKNEPFSAR [Q18N] to VYYIFERLCAPLFRNIKREPFSAR [Q18R], the protein stability index rises from 1.52 to 2.62.

Compared with VYYIFERLCAPLFRNIKCEPFSAR [Q18C], VYYIFERLCAPLFRNIKPEPFSAR [Q18P] is higher in protein stability index: 2.19 for the first, 2.92 for the second.

First: VYYIFERLCAPLFRNIKYEPFSAR [Q18Y]
Second: VYYIFERLCAPLSRNIKQEPFSAR [F13S]
The protein stability index of the first is higher: 3.88 for the first, 2.09 for the second.

Compared with VYYIFERLCAPLIRNIKQEPFSAR [F13I], VYYIFERLCAPLRRNIKQEPFSAR [F13R] is higher in protein stability index: 2.64 for the first, 4.31 for the second.

Compared with VYYIFERLCAPLPRNIKQEPFSAR [F13P], VYYIFERLCMPLFRNIKQEPFSAR [A10M] is lower in protein stability index: 3.2 for the first, 1.39 for the second.

Compared with VYYIFERLCWPLFRNIKQEPFSAR [A10W], VYYIFERLCHPLFRNIKQEPFSAR [A10H] is higher in protein stability index: 2.4 for the first, 3.56 for the second.

First: VYYIFERLCAPLFRNIKQEIFSAR [P20I]
Second: VYYIFERLCAPLFRNIKQEQFSAR [P20Q]
The protein stability index of the first is higher: 2.71 for the first, 2.44 for the second.

First: VYYIFERLCAPLFRNIKQELFSAR [P20L]
Second: VYYIFERLCAPLFRNIKQEGFSAR [P20G]
The protein stability index of the first is lower: 2.48 for the first, 2.71 for the second.

Compared with VYYIFERLCAPLFRNIKQENFSAR [P20N], VYYIFERLCAPLFRNIKQETFSAR [P20T] is higher in protein stability index: 2.53 for the first, 3.49 for the second.

Going from VYYIFERLCAPLFRNIKQEMFSAR [P20M] to VYYIFERLCAPLFRNIKQEVFSAR [P20V], the protein stability index rises from 2.49 to 2.6.

First: VYYIFERLCAPLFRNIYQEPFSAR [K17Y]
Second: VYYIFERLCAPLFRNIVQEPFSAR [K17V]
The protein stability index of the first is lower: 2.06 for the first, 3.1 for the second.

First: VYYIFERLCAPLFRNIIQEPFSAR [K17I]
Second: VYYIFERLCAPLFRNIQQEPFSAR [K17Q]
The protein stability index of the first is lower: 1.47 for the first, 2.52 for the second.

Compared with VYYIFERLCAPLFRNICQEPFSAR [K17C], QYYIFERLCAPLFRNIKQEPFSAR [V1Q] is lower in protein stability index: 4.42 for the first, 1.32 for the second.

Compared with FYYIFERLCAPLFRNIKQEPFSAR [V1F], PYYIFERLCAPLFRNIKQEPFSAR [V1P] is lower in protein stability index: 2.17 for the first, 1.32 for the second.

Going from IYYIFERLCAPLFRNIKQEPFSAR [V1I] to GYYIFERLCAPLFRNIKQEPFSAR [V1G], the protein stability index falls from 1.82 to 1.7.

First: KYYIFERLCAPLFRNIKQEPFSAR [V1K]
Second: SYYIFERLCAPLFRNIKQEPFSAR [V1S]
The protein stability index of the first is lower: 1.55 for the first, 2.13 for the second.

Going from DYYIFERLCAPLFRNIKQEPFSAR [V1D] to VYYIFEDLCAPLFRNIKQEPFSAR [R7D], the protein stability index rises from 1.44 to 4.14.

Going from VYYIFEYLCAPLFRNIKQEPFSAR [R7Y] to VYYIFEHLCAPLFRNIKQEPFSAR [R7H], the protein stability index falls from 2.98 to 2.62.
